Measurements taken from publication PMC5487423.

Target: P991_AMBCA, purified, C-terminal StrepII-8xHis tag (Amblyomma cajennense)
Assay: BLI; Kd and koff determination: His-tagged evasin immobilised on Ni-NTA biosensor (OctetRed), chemokine dilutions from 300 nM to 0.4 nM, 30 °C, same buffer as the screen; reference protein subtracted; 1:1 model with global fit, or steady state; each experiment once

Substance “CCL13 (from UniProt Q99616 17-98) (ligand)” has a dissociation half-life of 2.72 h.
